Measured values taken from article PMC8193172.

Target: Hydrophobin-BMP2 fusion protein (UniProt P12643)
Assay: SDS-PAGE and Western blot

stoichiometry N: 2
Substance: Hydrophobin-BMP2 fusion protein (from UniProt P12643 283-396)
